# Results as given in IntAct's records for PubMed 35512704.
# B1: Speckle-type POZ protein (Homo sapiens), O43791 (parent)
# chain: MSRVPSPPPPAEMSSGPVAESWCYTQIKVVKFSYMWTINNFSFCREEMGEVIKSSTFSSGANDKLKWCLRVNPKGLDEESKDYLSLYLLLVSCPKSEVRAKFKFSILNAKGEETKAMESQRAYRFVQGKDWGFKKFIRRDFLLDEANGLLPDDKLTLFCEVSVVQDSVNISGQNTMNMVKVPECRLADELGGLWENSRFTDCCLCVAGQEFQAHKAILAARSPVFSAMFEHEMEESKKNRVEINDVEPEVFKEMMCFIYTGKAPNLDKMADDLLAAADKYALERLKVMCEDALCSNLSVENAAEILILADLHSADQLKTQAVDFINYHASDVLETSGWKSMVVSHPHLVAEAYRSLASAQCPFLGPPRKRLKQS
# Variants of: B1
# Settings: with jak1_human JAK1, P23458
row,Variant,effect of a mutation on the interaction
1,Y87C,with no effect

# Variants of: B1
# Settings: with jak3_human JAK3, P52333
row,Variant,effect of a mutation on the interaction
1,Y87C,with no effect

# Variants of: B1
# Settings: with kat2a_human KAT2A
row,Variant,effect of a mutation on the interaction
1,Y87C,with no effect

# Variants of: B1
# Settings: with kdm5a_human KDM5A
row,Variant,effect of a mutation on the interaction
1,Y87C,with no effect

# Variants of: B1
# Settings: with kdm5c_human KDM5C
row,Variant,effect of a mutation on the interaction
1,Y87C,with no effect

# Variants of: B1
# Settings: with kdm6a_human KDM6A
row,Variant,effect of a mutation on the interaction
1,Y87C,with no effect

# Variants of: B1
# Settings: with vgfr2_human KDR
row,Variant,effect of a mutation on the interaction
1,Y87C,with no effect

# Variants of: B1
# Settings: with lims1_human LIMS1, P48059
# Sequence of lims1_human LIMS1, P48059 (P48059 whole entry): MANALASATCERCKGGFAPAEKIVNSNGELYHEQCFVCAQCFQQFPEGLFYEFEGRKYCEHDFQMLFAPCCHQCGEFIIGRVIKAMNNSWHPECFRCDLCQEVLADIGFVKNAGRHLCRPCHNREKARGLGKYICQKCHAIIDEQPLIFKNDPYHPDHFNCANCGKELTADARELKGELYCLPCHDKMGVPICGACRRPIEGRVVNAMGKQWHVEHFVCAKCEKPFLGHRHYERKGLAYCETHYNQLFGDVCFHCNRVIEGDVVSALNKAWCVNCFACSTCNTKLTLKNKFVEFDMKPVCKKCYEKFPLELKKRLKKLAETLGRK
row,Variant,effect of a mutation on the interaction
1,Y87C,with no effect

# Variants of: B1
# Settings: with maga6_human MAGEA6, P43360
# Sequence of maga6_human MAGEA6, P43360 (P43360 whole entry): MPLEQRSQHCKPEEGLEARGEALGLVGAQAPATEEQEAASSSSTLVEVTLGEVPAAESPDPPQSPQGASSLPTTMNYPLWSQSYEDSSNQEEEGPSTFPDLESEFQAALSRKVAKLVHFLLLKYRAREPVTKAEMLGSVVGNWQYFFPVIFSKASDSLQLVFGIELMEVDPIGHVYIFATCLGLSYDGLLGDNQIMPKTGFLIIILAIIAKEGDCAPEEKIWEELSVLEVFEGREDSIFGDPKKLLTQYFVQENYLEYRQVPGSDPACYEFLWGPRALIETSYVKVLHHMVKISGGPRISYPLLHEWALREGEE
row,Variant,effect of a mutation on the interaction
1,Y87C,with no effect

# Variants of: B1
# Settings: with m3k1_human MAP3K1, Q13233
row,Variant,effect of a mutation on the interaction
1,Y87C,with no effect

# Variants of: B1
# Settings: with mk10_human MAPK10, P53779
# Sequence of mk10_human MAPK10, P53779 (P53779 whole entry): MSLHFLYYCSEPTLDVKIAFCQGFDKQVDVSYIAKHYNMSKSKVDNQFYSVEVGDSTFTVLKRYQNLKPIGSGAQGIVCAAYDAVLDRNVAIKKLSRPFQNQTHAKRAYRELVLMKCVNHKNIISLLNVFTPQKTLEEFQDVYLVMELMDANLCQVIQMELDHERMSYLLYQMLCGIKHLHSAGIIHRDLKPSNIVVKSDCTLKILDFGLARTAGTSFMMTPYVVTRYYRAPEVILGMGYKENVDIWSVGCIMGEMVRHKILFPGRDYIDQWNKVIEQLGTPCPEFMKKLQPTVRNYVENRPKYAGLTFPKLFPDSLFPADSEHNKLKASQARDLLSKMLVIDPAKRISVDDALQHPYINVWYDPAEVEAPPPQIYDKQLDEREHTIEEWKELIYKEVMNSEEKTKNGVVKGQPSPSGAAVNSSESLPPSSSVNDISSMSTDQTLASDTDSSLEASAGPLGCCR
row,Variant,effect of a mutation on the interaction
1,Y87C,with no effect

# Variants of: B1
# Settings: with mk14_human MAPK14, Q16539
row,Variant,effect of a mutation on the interaction
1,Y87C,with no effect

# Variants of: B1
# Settings: with mk03_human MAPK3, P27361
row,Variant,effect of a mutation on the interaction
1,Y87C,with no effect

# Variants of: B1
# Settings: with mk04_human MAPK4, P31152
row,Variant,effect of a mutation on the interaction
1,Y87C,with no effect

# Variants of: B1
# Settings: with mk06_human MAPK6, Q16659
row,Variant,effect of a mutation on the interaction
1,Y87C,with no effect

# Variants of: B1
# Settings: with sin1_human MAPKAP1, Q9BPZ7
row,Variant,effect of a mutation on the interaction
1,Y87C,with no effect

# Variants of: B1
# Settings: with mcl1_human MCL1, Q07820
row,Variant,effect of a mutation on the interaction
1,Y87C,with no effect

# Variants of: B1
# Settings: with mdm2_human MDM2, Q00987
row,Variant,effect of a mutation on the interaction
1,Y87C,with no effect

# Variants of: B1
# Settings: with mitf_human MITF
row,Variant,effect of a mutation on the interaction
1,Y87C,with no effect

# Variants of: B1
# Settings: with mlh1_human MLH1, P40692
row,Variant,effect of a mutation on the interaction
1,Y87C,with no effect

# Variants of: B1
# Settings: with mtor_human MTOR
row,Variant,effect of a mutation on the interaction
1,Y87C,with no effect

# Variants of: B1
# Settings: with mybb_human MYBL2, P10244
row,Variant,effect of a mutation on the interaction
1,Y87C,with no effect

# Variants of: B1
# Settings: with myc_human MYC
row,Variant,effect of a mutation on the interaction
1,Y87C,with no effect

# Variants of: B1
# Settings: with mycn_human MYCN
row,Variant,effect of a mutation on the interaction
1,Y87C,with no effect

# Variants of: B1
# Settings: with ncoa3_human NCOA3, Q9Y6Q9
# Sequence of ncoa3_human NCOA3, Q9Y6Q9 (Q9Y6Q9 whole entry, looked up): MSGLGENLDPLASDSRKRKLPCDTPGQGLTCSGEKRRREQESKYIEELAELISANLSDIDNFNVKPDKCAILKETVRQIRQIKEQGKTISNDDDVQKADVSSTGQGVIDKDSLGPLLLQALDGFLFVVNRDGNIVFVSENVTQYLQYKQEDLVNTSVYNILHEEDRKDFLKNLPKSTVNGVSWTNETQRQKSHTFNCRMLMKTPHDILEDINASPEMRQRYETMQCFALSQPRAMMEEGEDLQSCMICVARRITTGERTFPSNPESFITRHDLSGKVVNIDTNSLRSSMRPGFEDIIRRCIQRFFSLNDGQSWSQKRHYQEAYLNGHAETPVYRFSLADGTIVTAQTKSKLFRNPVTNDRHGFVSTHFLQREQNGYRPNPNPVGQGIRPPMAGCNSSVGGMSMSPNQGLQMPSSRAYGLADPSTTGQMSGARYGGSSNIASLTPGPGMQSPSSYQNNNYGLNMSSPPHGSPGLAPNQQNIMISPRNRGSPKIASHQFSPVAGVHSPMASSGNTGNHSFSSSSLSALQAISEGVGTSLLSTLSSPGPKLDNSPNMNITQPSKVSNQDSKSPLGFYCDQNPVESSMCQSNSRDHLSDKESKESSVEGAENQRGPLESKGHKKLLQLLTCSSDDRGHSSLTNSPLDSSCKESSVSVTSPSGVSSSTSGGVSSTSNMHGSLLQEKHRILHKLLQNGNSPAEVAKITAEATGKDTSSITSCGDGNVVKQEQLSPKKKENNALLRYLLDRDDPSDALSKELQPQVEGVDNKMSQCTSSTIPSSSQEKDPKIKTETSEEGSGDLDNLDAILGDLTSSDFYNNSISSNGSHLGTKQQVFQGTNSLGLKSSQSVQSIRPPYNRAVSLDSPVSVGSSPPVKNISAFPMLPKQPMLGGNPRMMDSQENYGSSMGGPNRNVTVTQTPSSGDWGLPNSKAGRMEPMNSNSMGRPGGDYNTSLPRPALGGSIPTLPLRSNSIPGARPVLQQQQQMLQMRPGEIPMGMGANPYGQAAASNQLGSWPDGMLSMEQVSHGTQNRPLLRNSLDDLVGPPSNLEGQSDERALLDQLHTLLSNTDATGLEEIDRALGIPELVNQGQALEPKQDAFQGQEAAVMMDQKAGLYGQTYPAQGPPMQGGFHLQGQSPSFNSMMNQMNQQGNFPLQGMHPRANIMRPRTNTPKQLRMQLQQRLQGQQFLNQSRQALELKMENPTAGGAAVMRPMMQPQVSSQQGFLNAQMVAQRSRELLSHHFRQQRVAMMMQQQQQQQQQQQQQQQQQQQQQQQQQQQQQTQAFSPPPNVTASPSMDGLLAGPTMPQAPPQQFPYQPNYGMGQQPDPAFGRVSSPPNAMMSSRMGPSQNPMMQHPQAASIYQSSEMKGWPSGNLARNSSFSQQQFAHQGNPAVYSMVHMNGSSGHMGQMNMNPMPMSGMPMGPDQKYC
row,Variant,effect of a mutation on the interaction
1,Y87C,with no effect

# Variants of: B1
# Settings: with merl_human NF2, P35240
row,Variant,effect of a mutation on the interaction
1,Y87C,with no effect

# Variants of: B1
# Settings: with nfic_human NFIC
row,Variant,effect of a mutation on the interaction
1,Y87C,with no effect

# Variants of: B1
# Settings: with ikba_human NFKBIA
row,Variant,effect of a mutation on the interaction
1,Y87C,with no effect

# Variants of: B1
# Settings: with notc2_human NOTCH2, Q04721
row,Variant,effect of a mutation on the interaction
1,Y87C,with no effect

# Variants of: B1
# Settings: with nox1_human NOX1, Q9Y5S8
row,Variant,effect of a mutation on the interaction
1,Y87C,with no effect

# Variants of: B1
# Settings: with ntrk2_human NTRK2, Q16620
row,Variant,effect of a mutation on the interaction
1,Y87C,with no effect

# Variants of: B1
# Settings: with ntrk3_human NTRK3, Q16288
row,Variant,effect of a mutation on the interaction
1,Y87C,with no effect

# Variants of: B1
# Settings: with pak3_human PAK3, O75914
# Sequence of pak3_human PAK3, O75914 (O75914 whole entry, looked up): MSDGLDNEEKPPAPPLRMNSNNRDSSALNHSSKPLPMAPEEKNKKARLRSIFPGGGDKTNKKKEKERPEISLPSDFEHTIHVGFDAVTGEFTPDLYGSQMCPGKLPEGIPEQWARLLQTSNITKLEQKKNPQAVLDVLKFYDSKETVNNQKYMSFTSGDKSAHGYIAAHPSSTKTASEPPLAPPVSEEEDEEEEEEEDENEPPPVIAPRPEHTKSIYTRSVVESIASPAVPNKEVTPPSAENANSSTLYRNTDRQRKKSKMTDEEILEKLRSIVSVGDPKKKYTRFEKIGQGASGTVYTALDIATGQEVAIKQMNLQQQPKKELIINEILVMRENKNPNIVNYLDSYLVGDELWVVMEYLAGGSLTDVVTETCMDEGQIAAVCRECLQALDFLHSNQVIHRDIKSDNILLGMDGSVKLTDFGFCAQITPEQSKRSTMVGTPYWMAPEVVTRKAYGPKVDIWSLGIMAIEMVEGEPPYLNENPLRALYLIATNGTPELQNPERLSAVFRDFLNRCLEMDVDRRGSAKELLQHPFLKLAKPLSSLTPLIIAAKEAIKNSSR
row,Variant,effect of a mutation on the interaction
1,Y87C,with no effect

# Variants of: B1
# Settings: with prkn_human PRKN
row,Variant,effect of a mutation on the interaction
1,Y87C,with no effect

# Variants of: B1
# Settings: with pb1_human PBRM1, Q86U86
# Sequence of pb1_human PBRM1, Q86U86 (Q86U86 whole entry): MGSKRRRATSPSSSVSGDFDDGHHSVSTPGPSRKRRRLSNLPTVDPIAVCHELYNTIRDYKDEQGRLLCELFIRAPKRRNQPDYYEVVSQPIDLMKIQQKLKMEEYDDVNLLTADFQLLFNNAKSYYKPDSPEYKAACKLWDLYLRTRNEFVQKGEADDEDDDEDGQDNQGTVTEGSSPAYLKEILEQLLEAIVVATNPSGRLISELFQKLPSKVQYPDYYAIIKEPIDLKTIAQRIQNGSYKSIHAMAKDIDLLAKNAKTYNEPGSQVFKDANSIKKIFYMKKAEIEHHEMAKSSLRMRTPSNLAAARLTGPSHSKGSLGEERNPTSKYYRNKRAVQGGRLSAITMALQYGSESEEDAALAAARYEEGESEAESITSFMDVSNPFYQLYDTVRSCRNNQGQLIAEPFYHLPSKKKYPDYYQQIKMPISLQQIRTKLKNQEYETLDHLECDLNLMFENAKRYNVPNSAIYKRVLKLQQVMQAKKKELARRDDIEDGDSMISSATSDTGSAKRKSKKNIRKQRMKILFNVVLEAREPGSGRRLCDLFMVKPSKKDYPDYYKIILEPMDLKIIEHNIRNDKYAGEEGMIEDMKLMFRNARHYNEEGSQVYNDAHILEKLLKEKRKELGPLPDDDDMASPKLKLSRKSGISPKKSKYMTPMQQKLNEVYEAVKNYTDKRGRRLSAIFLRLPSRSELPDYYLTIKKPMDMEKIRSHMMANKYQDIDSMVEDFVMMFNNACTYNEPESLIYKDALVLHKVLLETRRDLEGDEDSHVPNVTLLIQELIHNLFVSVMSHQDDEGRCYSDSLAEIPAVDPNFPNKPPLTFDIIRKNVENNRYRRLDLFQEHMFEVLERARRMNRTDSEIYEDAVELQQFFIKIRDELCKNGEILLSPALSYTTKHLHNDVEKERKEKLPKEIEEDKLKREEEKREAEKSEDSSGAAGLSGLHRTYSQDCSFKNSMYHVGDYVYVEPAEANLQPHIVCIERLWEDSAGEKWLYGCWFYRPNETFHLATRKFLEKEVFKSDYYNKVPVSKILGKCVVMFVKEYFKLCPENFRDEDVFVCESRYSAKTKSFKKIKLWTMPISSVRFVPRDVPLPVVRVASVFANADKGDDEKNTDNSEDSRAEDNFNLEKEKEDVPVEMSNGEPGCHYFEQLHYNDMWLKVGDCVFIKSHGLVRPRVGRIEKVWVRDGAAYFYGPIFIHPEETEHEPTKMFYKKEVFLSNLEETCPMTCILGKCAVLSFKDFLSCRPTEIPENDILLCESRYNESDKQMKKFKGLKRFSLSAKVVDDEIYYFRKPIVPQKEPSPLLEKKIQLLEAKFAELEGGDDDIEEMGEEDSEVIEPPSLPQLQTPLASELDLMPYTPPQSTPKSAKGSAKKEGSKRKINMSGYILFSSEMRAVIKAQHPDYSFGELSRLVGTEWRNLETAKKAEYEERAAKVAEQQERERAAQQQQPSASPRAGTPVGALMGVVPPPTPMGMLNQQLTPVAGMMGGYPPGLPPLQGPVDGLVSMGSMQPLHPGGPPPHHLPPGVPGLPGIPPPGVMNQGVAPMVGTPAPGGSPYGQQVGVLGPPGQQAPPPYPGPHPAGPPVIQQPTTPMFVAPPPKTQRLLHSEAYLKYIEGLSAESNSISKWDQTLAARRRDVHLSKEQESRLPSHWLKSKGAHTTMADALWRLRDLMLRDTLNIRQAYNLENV
row,Variant,effect of a mutation on the interaction
1,Y87C,with no effect

# Variants of: B1
# Settings: with pcbp1_human PCBP1, Q15365
row,Variant,effect of a mutation on the interaction
1,Y87C,with no effect

# Variants of: B1
# Settings: with pdcd1_human PDCD1, Q15116
# Sequence of pdcd1_human PDCD1, Q15116 (Q15116 whole entry): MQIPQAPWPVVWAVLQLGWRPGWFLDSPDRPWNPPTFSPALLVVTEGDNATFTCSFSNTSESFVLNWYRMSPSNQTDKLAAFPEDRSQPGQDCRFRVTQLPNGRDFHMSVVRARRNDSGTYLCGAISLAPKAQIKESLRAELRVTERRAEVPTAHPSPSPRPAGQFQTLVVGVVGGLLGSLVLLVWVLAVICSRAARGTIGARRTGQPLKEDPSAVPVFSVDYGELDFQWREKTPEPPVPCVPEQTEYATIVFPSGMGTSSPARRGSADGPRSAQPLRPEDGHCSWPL
row,Variant,effect of a mutation on the interaction
1,Y87C,with no effect

# Variants of: B1
# Settings: with pgfrb_human PDGFRB
row,Variant,effect of a mutation on the interaction
1,Y87C,with no effect

# Variants of: B1
# Settings: with pdk1_human PDK1, Q15118
row,Variant,effect of a mutation on the interaction
1,Y87C,with no effect

# Variants of: B1
# Settings: with PIK3C2B
row,Variant,effect of a mutation on the interaction
1,Y87C,with no effect

# Variants of: B1
# Settings: with pk3cb_human PIK3CB
row,Variant,effect of a mutation on the interaction
1,Y87C,with no effect

# Variants of: B1
# Settings: with pk3cg_human PIK3CG
row,Variant,effect of a mutation on the interaction
1,Y87C,with no effect

# Variants of: B1
# Settings: with p85b_human PIK3R2, O00459
row,Variant,effect of a mutation on the interaction
1,Y87C,with no effect

# Variants of: B1
# Settings: with dpod1_human POLD1, P28340
row,Variant,effect of a mutation on the interaction
1,Y87C,with no effect

# Variants of: B1
# Settings: with dpoe1_human POLE
row,Variant,effect of a mutation on the interaction
1,Y87C,with no effect

# Variants of: B1
# Settings: with ppard_human PPARD
row,Variant,effect of a mutation on the interaction
1,Y87C,with no effect
